Source: paper PMC8408612

Experiments:
Experiment in all cases: co-IP
[1] = target: endogenous dynein intermediate chain (DIC) of COS7 cells (African green monkey (endogenous in COS7))
Flag-CRMP4 = Flag-CRMP4 (UniProt Q14195)
[2] = target: endogenous mouse dynein intermediate chain (DIC) (mouse (endogenous in sciatic nerve and primary motor neurons)) (UniProt O88485)
Chain of UniProt O88485 (O88485 whole entry): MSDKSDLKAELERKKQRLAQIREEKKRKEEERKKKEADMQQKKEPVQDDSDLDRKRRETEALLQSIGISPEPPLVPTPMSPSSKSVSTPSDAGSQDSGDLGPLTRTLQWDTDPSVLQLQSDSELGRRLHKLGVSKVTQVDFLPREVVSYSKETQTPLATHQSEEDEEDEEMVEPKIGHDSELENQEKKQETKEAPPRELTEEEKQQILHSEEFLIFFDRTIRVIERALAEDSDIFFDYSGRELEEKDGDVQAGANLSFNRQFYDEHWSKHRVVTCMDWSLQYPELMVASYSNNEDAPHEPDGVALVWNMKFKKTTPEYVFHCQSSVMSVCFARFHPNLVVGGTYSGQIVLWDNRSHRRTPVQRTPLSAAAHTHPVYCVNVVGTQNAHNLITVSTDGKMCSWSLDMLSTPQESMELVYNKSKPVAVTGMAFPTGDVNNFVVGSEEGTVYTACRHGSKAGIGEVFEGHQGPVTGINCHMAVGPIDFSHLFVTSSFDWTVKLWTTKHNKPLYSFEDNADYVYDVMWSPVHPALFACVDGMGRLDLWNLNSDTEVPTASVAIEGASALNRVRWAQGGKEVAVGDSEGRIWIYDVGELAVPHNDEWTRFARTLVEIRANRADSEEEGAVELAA

Chain of Flag-CRMP4 (Q14195 whole entry): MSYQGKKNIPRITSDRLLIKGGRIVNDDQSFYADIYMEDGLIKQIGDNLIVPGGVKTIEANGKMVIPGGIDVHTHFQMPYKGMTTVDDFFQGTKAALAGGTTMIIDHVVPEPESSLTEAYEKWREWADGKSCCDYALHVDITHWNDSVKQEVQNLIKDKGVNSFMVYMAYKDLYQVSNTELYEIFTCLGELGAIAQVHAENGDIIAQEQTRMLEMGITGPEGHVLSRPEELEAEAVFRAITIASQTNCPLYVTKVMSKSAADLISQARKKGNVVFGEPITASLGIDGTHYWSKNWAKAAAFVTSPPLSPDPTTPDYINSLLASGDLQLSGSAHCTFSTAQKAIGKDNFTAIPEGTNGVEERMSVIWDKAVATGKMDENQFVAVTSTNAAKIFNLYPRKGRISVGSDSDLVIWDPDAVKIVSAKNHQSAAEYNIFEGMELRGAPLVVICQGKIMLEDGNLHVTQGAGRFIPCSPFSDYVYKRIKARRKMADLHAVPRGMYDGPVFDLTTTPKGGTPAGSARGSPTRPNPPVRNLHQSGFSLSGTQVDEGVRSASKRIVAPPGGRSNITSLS

## CRMP4 (transfected together with AAV9-GFP or AAV9-GFP-50aa, Figure 4H) (from UniProt Q14195 1-570) (natural protein)
[1]
  CRMP4 band normalised to DIC band (mean), cells with GFP-50aa: 0.54
  CRMP4 band normalised to DIC band (mean), control cells with GFP: 1

## Flag-CRMP4 (from UniProt Q14195 1-570) (natural protein)
[1]
  CRMP4 band normalised to DIC band (mean): 1

## dynactin (p150), endogenous in COS7 cells (natural protein)
Flag-CRMP4
  dynactin band normalised to Flag-CRMP4 band (mean), no peptide (Fig 4E): 0.77
  dynactin band normalised to Flag-CRMP4 band (mean), no peptide (Fig 4G): 1.92
  dynactin band normalised to Flag-CRMP4 band (mean), with peptide-1: 1.44
  dynactin band normalised to Flag-CRMP4 band (mean), with peptide-2: 1.34
  dynactin band normalised to Flag-CRMP4 band (mean), with peptide-3: 1.8
  dynactin band normalised to Flag-CRMP4 band (mean), with peptide-4: 1.13
  dynactin band normalised to Flag-CRMP4 band (mean), with peptides 1-4 (Fig 4E): 0.17

## endogenous mouse CRMP4 (from UniProt Q62188 1-570) (natural protein)
[2]
  CRMP4 band normalised to DIC band (mean), SOD1G93A sciatic nerve: 1.48
  CRMP4 band normalised to DIC band (mean), WT sciatic nerve: 0.28

## full-length GFP-CRMP4 (from UniProt Q14195 1-570) (natural protein)
[1]
  CRMP4 band co-precipitated with DIC (densitometry, mean): 1.47

## mutated Flag-CRMP4-I141V (from UniProt Q14195 1-570) (natural protein)
[1]
  CRMP4 band normalised to DIC band (mean): 1.62
